# Results: the nanobody polyreactivity screen of Harvey et al. (2022)
# Assay: yeast display, Sf9 membrane polyspecificity reagent, FACS + sequencing; frameworks hold sequencing errors
# Method in brief: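 Sorting gates, low and high (top ~1%), were placed on anti-HA fluorescence to track expression and on streptavidin fluorescence to track reagent binding. A clone's polyreactivity label is taken from the gate it came out of. The reagent was 10% biotinylated, detergent-solubilized Sf9 membrane, applied for 1 hour at 4 °C to galactose-induced yeast display cells.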
row,Sequence,polyreactivity (PSR sort gate)
1,QVQLVESGGGLVQAGGSLRLSFAASGRIFPHNAMGWYRQAPGKERELVAAISSNGGSTYYADSVKGRFTISRDNAKNTVYLQMNSLKPEDTAVYYCAKYRYFAGDGDYWGQGTQVTVSS,low polyreactivity
2,QVQLVESGGGLVQAGGSLRLSCAASGRTFQYYAMGWYRQAPGKERELVAAITRGDSTYYADSVKGRFTISRDNAKNTVYLQMNSLKPEDTAVYYCNAKLYKPPFDYWGQGTQVTVSS,low polyreactivity
3,QVQLVESGGGLVQAGGSLRLSCAASGSIFSLYTMGWYRQAPGKERELVARITTSGGTTRYADSVKGRFTISRDTSKNTVYLQMISLKPEDTAVYYCAADRSPFWRGYVRYNYWGQGTQVTVSS,high polyreactivity
4,QVQLVESGGGLVQAGGSLRLSCAPSGYTFWLYAMGWYRQAPGKERELVAAITWNGGSTYYADSVKGRFTISRDIAKNTVYLQMISLNPEYTAVYYCAAEAIIYLQWFDYWGQGTQVTVSS,low polyreactivity
5,QVQLVESGGGLVQAGGSLRLSCAASGFTFYGYAMGWYRQAPGKERELVATIRRSTGSTYYADSVKGRFTISRDNAKNTVYLQMNSLKPEDTAVYYCATRVWFPITSYDYWGQGTQVTVSS,low polyreactivity
6,QVQLVESGGALVQAGGSLRISCAASGRTFQVNTMGWYRQAPGKEMELVAAISSAGRTYYADSVKGRFTISRDNAKNTVYLQMNSLKPEDTAVYYCSAAWSYSYWKARYGYWGQGTQVTVSS,high polyreactivity
7,QVQLVESGGGLVQAGLTLRLSCAASGRIFYPYAMVWYRQAPGKERELVAYNTRSGGSTRYADSVKGRFTISRDNAKNTLYLQMNSLITEDTAVDYCAARTWGRRSSSWGGYYWGQGTQVTVSS,high polyreactivity
8,QVQLVESGGGLVQAGGSLRLSCAASGNIFLYYAMRWYRQAPGKERELVADIDSSGASTYYADSVKVRFTISRDNAKNTVYLQMNSLKPEDTAVYYCAAEFHWWYAGYDYGYWGQGTKVTVSS,low polyreactivity
9,QVQLVESGGGLVQAGGSLRLSCAASGFIFLGNAMGWYRQAPGKERELVAAISSGGSTYADSVKGRFTISRDNAKNTVYLQMNSLKPEDTAVNYCAVDRAFRAQNYHEYDYWGQGTQVTVSS,low polyreactivity
10,QVQLVESGGGLVPAGGSLRLSCAASGFTFEYYVIGWYRHAPGKERELVAAISSRGGSTYYADSVKGRFTISRDNAKNTVYLQMNSLKPDDTAVYYGATRDPYPRRREFEYWGQGTQVTVSS,low polyreactivity
11,QVQLVESGGGLVQAGGSLRLSCAASGINYDYYTMGWYRQAPGKERELVASINFSGGSTYYADSVKGRFTISRDNAKNTVYLQMNSLKPEDTAVYYCAAVSVSFWGGGRYYYWGQGTQVTVSS,high polyreactivity
12,QVQLVESGGGLVQAGGSLRLSCAASGRIFKLYAMGWYRQAPGKERELVASITWGGGSTNYADSVKGRFTISRDNAKNTVYLQMNSLKPEDTAVYYCAAVYSKYAVFWEYDYWGQGTQVTVSS,low polyreactivity
13,QVLLVESGGVLVQAGGSLRLSCAASGSTFWSYAMGWYRQAPGKERELVAAISWSGDSTYYADSVKGRFTISRDNAKNTVYLQMNSLKPEDTAVYYCAADYVGGSYEYEYWGQGTQVTVSS,low polyreactivity
14,QVQLVESGAGLVKAGGSLRLSCASSGRILDFYDMGWYRQAPGKERELVAAITSGTSTYYADSVKGRFTISRDNAKYTVYLQMNSLKPEDTAVYYCAAAHVPVGQYVYWYDYWGQGTQVTVSS,low polyreactivity
15,QVQLVESGGGLVQAGGSLRLSCAASGSTFTLNAMGWYRQAPGKERELVAAITTSGGSTYYADSVKGRFTISRDNAKNTVYLQMNSLKPEDTAVYYCNADGPWREVERPFRKEGNYWGQGTQVTVSS,low polyreactivity
16,QVQLVESGGGLVQAGGSLRLICAASGRIFAYYAMGWYRHAPGKERELVAAISGSGRTYYADSVKGRFTISRDNAKYTVYLQMNSLKPEDTAVYYCNNVYSFYYTEGYDYWGQVTQVTVSS,high polyreactivity

row,Sequence,polyreactivity (PSR sort gate)
1,QVQLVESGGGLVQAGGSLRLSCAASGSIIFSYAMGWYRQAPGKEREFVAAITGSGGSTYYADSVKGRFTISRDNAKNTVYLQMNSLKPEDTAVYYCARPQWRDWYGYWGQGTQVTVSS,low polyreactivity
2,QVQLVESGGGLVQAGGSLRLSCAASGSTFWFYAMGWYRQAPGKERELVAVISNSGSTYYADSVKGRFTISRDNAKNTVYLQMNSLKPEDTAVYYSNKDGGGDSYWYDYWGQGTQVTVSS,low polyreactivity
3,QVQLVESGAGLVQAGGSLRLSCAASGGTFWKYAMGWYRQAPGKESELVAAITWSGSSTYYADSVKGRFTISRDNAKNTVFLLMKSLKPEDTAVYYCARYHVGPSYRYGYWGQGTQVTVSS,high polyreactivity
4,QVQLVESGGGLVQAGGCLRLSCAASGSTFYVYDMGWYRQAPGKERELVAAMSKRRGTTYYADSVKGRFTISRDNAKNTVYLQMNSLKPEDTAVYYCAAVFRSPSAGYQGGYWGQGSQVTVSS,high polyreactivity
5,QVQLVESAGGLVQAGGSLRLSCAASGSIINRYAMGWYRQAPGKERELVAAITQSGGRTYYADSVKGRFTISRDNAKNTVYLQMNRLKPDDTAGYYCNAFRWYLYDYWGQGTLVTVSS,high polyreactivity
6,QVQLVDSGGGLVQAGGSLRLSCAASGLIFLYYAMGWYRQAPGKERELVAAISSSGSTYYADSVKGRFTISRDNAKNTVYLQMNSLKPEDTAVYYCAARWTRNYGMNYWGQGTQVTVSS,high polyreactivity
7,QVQLVESGGGLVQAGGSLRLSCSASGSIFYTYAMGWYRQAPGKERELVAAISRSGGITYYADSVKGRFTISRDNAKNTVYLEMNSLKPEDTAVYFCNVASASPGRYDYWGQGTQVTLSS,high polyreactivity
8,QVQLVESGGGLVQAGGSLRLSCAASGSIFSLYTMGWYRQAPGKERELVATIRSVGSTNYADSVKGRFTISRDNAKNTVYLQMNSLKPEDTAVYYCAAGWYYGVYYIYDYWGQGTQVNVSS,high polyreactivity
9,QVQLVESGGGLVQAGGSLRLSCAPSGYNFSKYAMGWYRQAPGKERELVAAITSGGGSTYYADSVKGRFTISRDNAKNTVYLQMNSLKPEDTAVYYCNAACRRIVGQTYDYWGQGTQVTVSS,high polyreactivity
10,PVQLVESGGGLVQAGGSLRLSCAASGRTVGYAMGWYRQSPWKERELVARINRTTGSTYYADSVKGRFTISRDNAKNTVYLQMKRLKPEDTAVYYCNAKSYYYSRWSRYYCTGYYYWGQGTQVTVSS,high polyreactivity
11,QVQLVESGGGLVQAGGSLRLSCAASGSIFWWNAMGWYRQAPGKERELVAAINWSTGRTYYADSVKGRFTISRDNAKNTVYLQMNSLKPEDTAVYYCNADSKSSYYWYLWYNYWGQGTQVTVSS,low polyreactivity
12,QVQLVESGGGLVQAGGSLRLSCAASGRTFVGYAMGWYRQAPGKERELVAAISIGGGRTYYADSVKGRFTISRDNAKNTVYLQMNSLKPEDTAVYYCAAVFRQSNRHGGYDYWGQGTQVTVSS,high polyreactivity
13,QGQLVESGGGLVQAGGSLRLSCAASGSIFPGYTMGWYRQAPGKERELVAVISSDGRTHYADSVKGRFTISRDNAKNTVYLQMNSLKPEDSAVYYCAAAKRAYGYVLHAFYYWGQGTQVTVSS,high polyreactivity
14,QVQLVESGGGLVQAGGSLRLSCAASGSIFGSYAMGWYRQAPGKERALVAAMSRSGITYYADSVKGRFTISRDNAKNTVYLQMNSLKPEDTAVYYCNADVSWWGYHYDYWGQGTQVTVLS,high polyreactivity
15,QVQLVESGGGLVQAGGSLRLSCAASGRTLDKYAMGWYRQAPGKERELVAAITSGGSTNYADSVKGRFTISRDNAKNTVYLQMNSLKPEDTAVYYCAKDLQGNPHFSYGIDFDYWGQGTQVTVSS,low polyreactivity
